Assay: soluble on expression in E. coli; label from the status in PepcDB or PDB records

Sequence	soluble on expression in E. coli
MHVALHTVRMYPRNTSMVAIPSRELSPRRDGFRELLETNYQKRDLVHLTAGSVVPLLKNSIWLVVRGMVKLGAVSVHGDELLLGLAGPNEPFGEPLSTVEAYEAVALSDCDLLCLSANEVEQAPQLALAMMDAIGARYRQAEYMLALLGLRRVEERVRGFLEMLAQDYGQPCDDGLRLNLRLTHQEMASALSTTRVTVTRVIGLLRDEGWLKIDAQRHLVIAHLPRR	not soluble
MIADWLEQNGYPISSQVLKTEMSGNYMESAEKHVENGEKIDNLLRSQLKIDIRDGTGDDFERKSIKSIGAGRPFAKINMVDKQRAPLKITPLSDEEFRKTMRKRMEMERERLARLSNQAEDDSDDSSSSSDSSTSSASSSSEEKLTFSDILGKPTAAGAEKMIELSQIPNAWGPSKSALVTDDVASTSDPLPAIFNAHLPPLSMGRPPLTKSAKSREIDAIFGSDNVDYDLEDFEQDGVAKKKSILPMEKKKEEAKPKEQELVEPLVLSEGESIDELEDFDTGLLSSGGSDYSF	not soluble
MIAGGFGAGKTTAVGAVSEITPLSTEEYLTEASADVDSLAGLASKRTTTVAFDFGRLSLPDAPMPLELFLFGTPGQDRFVDLWYDLSRGAVGAVVLVDTRRLESSFTPVSFFEDIGLPFVVAVNRFDGAHRYHPEQVRAALELPAAVPVVTCDAREPNHVAGVLLALVDHAVNCAATTNRAGHTPSTTLQDALEHHHHHH	not soluble
MIDKQSGIPIYIQIQSEIKKKMEDGVWKVGTSIPAERQLAEMFHVSRMTVRQAIQGLVDDNILQRRVGAGTFIAEKKLTERLEAVTSFTNLMLQEGKVPSTRIVSYGIRPASTQEQEALQLPENSNVMKIERIRYGDRVPILYEVAAIPEKIASLLTKEDIMDSLYKAIELKLGQPIGEAEQIMEASLVSEKIAPYLDVKLGSPVMKLRQITTLEDGRPFEFTRSQYVGSRFQFVARIKQ	not soluble
MIDTTVFQDKTAVYYTLGCKLNFSETSTIGKILREAGVRTARKGEKADLCIVNTCSVTEMADKKCRQAIHRLVKQHPGAFVVVTGCYAQLKPGDVAKIEGVDVVLGAEQKKDLLQYLGDLHKHEGGEAYTTATKDIRSFAPSCSRGDRTRFFLKVQDGCDYFCSYCTIPFARGRSRNGTIASLVEQARQAAAEGGKEIVLTGVNIGDFGKSTGETFFDLVKALDRVEGIERYRISSIEPNLLTDEIIEYVSRSRSFMPHFHIPLQSGSDEVLQLMRRRYGTELFASKIAKIKEVMPDVFIGVDVIVGTRGETAGYFEKAYEFIHGLDVTQLHVFSYSERPGTQALKIDHVVTPEEKHQRSQRLLALSDEKTKAFYARYIGQTMPVLMEKPKAGALMHGFTANYIRVEVESDAALDNKVVNVLLGDFNEEGTALKGTITQLEHHHHHH	not soluble
MIEAALENPVPIKSQLSPTPRYFGSCKWFNVSKGYGFVIDDITGEDLFVHQSNLNMQGFRSLDEGERVSYYIQERSNGKGREAYAVSGEVEGQGLKGSRIHPLGRKKAVSLRCFRCGKFATHKAKSCPNVKTDAKVCYTCGSEEHVSSICPERRRKHRPEQVAAEEAEAARMAAEKSSPTTSDDDIREKNSNSSDE	soluble
MIEFSDEDLQKPVRIVIEKIRPYLLKDGGNIEVLGVKSMKIYVALEGACKTCSSSKITLKNVIERQLKMDIHPNLEVVCLENAKEFDKL	not soluble
MIEKVYCQEVKPELDGKKVRLAGWVYTNMRVGKKIFLWIRDSTGIVQAVVAKNVVGEETFEKAKKLGRESSVIVEGIVKADERAPGGAEVHVEKLEVIQAVSEFPIPENPEQASPELLLDYRHLHIRTPKASAIMKVKETLIMAAREWLLKDGWHEVFPPILVTGAVEGGATLFKLKYFDKYAYLSQSAQLYLEAAIFGLEKVWSLTPSFRAEKSRTRRHLTEFWHLELEAAWMDLWDIMKVEEELVSYMVQRTLELRKKEIEMFRDDLTTLKNTEPPFPRISYDEAIDILQSKGVNVEWGDDLGADEERVLTEEFDRPFFVYGYPKHIKAFYMKEDPNDPRKVLASDMLAPEGYGEIIGGSQREDDYDKLLNRILEEGMDPKDYEWYLDLRRYGSVPHSGFGLGVERLVAWVLKLDHIRWAALFPRTPARLYP	soluble
MIEYAALKFNVVSDPMSETAKKVIVGMSGGVDSSVSAWLLQQQGYQVEGLFMKNWEEDDGEEYCTAAADLADAQAVCDKLGIELHTVNFAAEYWDNVFELFLAEYKAGRTPNPDILCNKEIKFKAFLEFAAEDLGADYIATGHYVRRADVDGKSRLLRGLDSNKDQSYFLYTLSHEQIAQSLFPVGELEKPQVRKIAEDLGLVTAKKKDSTGICFIGERKFREFLGRYLPAQPGKIITVDGDEIGEHQGLMYHTLGQRKGLGIGGTKEGTEEPWYVVDKDVENNILVVAQGHEHPRLMSVGLIAQQLHWVDREPFTGTMRCTVKTRYRQTDIPCTVKALDDDRIKVIFDEPVAAVTPGQSAVFYNGEVCLGGGIIEQRLPLPVLEHHHHHH	soluble
MIFLIVLKYPVSLNVIRKLKTGDVVYYTGKIVVMDRSVVDILEKYERYEGTKLYDLTGEIVVLGTFRKNKLQFQEMTEELLERLFLLGVNGVILERVRPFSATKRFSRVLFEPLEEIRGTRRVIYKTPDSKKLEELEVEKLVLRVVQDSSGKVYSKV	not soluble
MIGKKSFQTNVYRMSKFDTYIFNNLYINDYKMFWIDSGIAKLIDKNCLVSYEINSSSIILLKKNSIQRFSLTSLSDENINVSVITISDSFIRSLKSYILGDLMIRNLYSENKDLLLWNCEHNDIAVLSEVVNGFREINYSDEFLKVFFSGFFSKVEKKYNSIFITDDLDAMEKISCLVKSDITRNWRWADICGELRTNRMILKKELESRGVKFRELINSIRISYSISLMKTGEFKIKQIAYQSGFASVSYFSTVFKSTMNVAPSEYLFMLTGVAEK	soluble
MIIDCHGHYTTAPAAHDAFRKAQIAHHDDPQQPAPQYPHISDDALRESIEQHQLRLLRERGADMTIFSPRASTMAHHIGNEAVSQVWTQRCNDLIARVVQLYPHTFIGVCQLPQSPGVPISHSIAELERCVNELGFVGCNLNPDPSGGHWNGVPLTDRAWYPFFEKMVELDVPAMVHVSGSCNANFHATGAHYLNADTTAFMQFLEGDLFRDFPSLRFIIPHGGGAVPYHWGRFRGLADMLGKPPLATHVMRNVFFDTCVYHQPGIDLLFEVIDIDNILFGSEMVGAVRGIDPQTGHYFDDTKRYIDALTISDADKRKVFEGNARRVYPRLDAQLRARGLLEHHHHHH	not soluble
MIIDIHGHYTTAPKALEDWRNRQIAGIKDPSVMPKVSELKISDDELQASIIENQLKKMQERGSDLTVFSPRASFMAHHIGDFNVSSTWAAICNELCYRVSQLFPDNFIGAAMLPQSPGVDPKTCIPELEKCVKEYGFVAINLNPDPSGGHWTSPPLTDRIWYPIYEKMVELEIPAMIHVSTSCNTCFHTTGAHYLNADTTAFMQCVAGDLFKDFPELKFVIPHGGGAVPYHWGRFRGLAQEMKKPLLEDHVLNNIFFDTCVYHQPGIDLLNTVIPVDNVLFASEMIGAVRGIDPRTGFYYDDTKRYIEASTILTPEEKQQIYEGNARRVYPRLDAALKAKGKLEHHHHHH	soluble
MIIDINRLDRAFDLIKEGVSKGVFPGAVAAVGTRERVIRLESFGNRCLYPEKLSMNKDTLFDLASLTKVVATNTLFMIFLEKGLISVYDNVSYYLEKFKGKNKDDVTIFNLLTHTAGFVPCKPLYKLCKGYEDSIDYICRCGLSYKPGTKCVYSDFSYILLAYILEKIGGDTLDILCDRYIFKPLYMENTTFKPKGNNIAATEIDKKTKKPLIGVCHDENGRFFGGISGHAGLFSDIYDLCKFSNMLVNEGKGIISYASFKAMTTNHTLGLEDNRGYGWCIKGDKNSFMGDIAFPETFGHNGFTGTSLWVDIKNNIYAILLTNRVHPTRDNLRIIRFRRVFSNAVLASLTR	not soluble
MIIKPAGDSAFLISFGDEISEEINDRVHSLAKAIEKESPEWLVELVPAYSSLLVIYDPLKASYEEVESYLKRISAREVERIKGKTIEIPVAYGGEFGPDIEFVAQYNGLSVDDVIEIHSKPLYRVYFLGFLPGFAYLGGMDERIATPRLEKPRLKVPAGSVGIAGKQTGWYAIESPGGWRIIGRIPLRTFNPGKVPPSIVLPGDYVKFVPIDEKEFWEIYGREWE	soluble
MIIQDIIEAIEAVCPRAYQESYDNSGVQVGDTKREATGALLCVDVTEAVLEEAIRLGCNLVIAHHPILFKPLKRLTGSSYVERCVELAVRHGLVLYAAHTNADNAPQGLNALLAERFGLLNTRPLEPLQGKLLELVTFVPTEYADAVRQALWQAGAGRLGHYDCCSFSHAGTGTFRAAEGANPFVGAISELHHEAEERISLVLPAYRQGTVLQALHAAHPYELPAVSLIPLANDHPSAGGGIVGDLPSPISEREMLLHIKEVFGLKVLSHSAWRERPLRRMAICGGSGAFMWRRAAQEGADLFLTGEAKYNDFFDAGEHLLLVTIGHYESEEVANELFMRIISQKFPTFATHKSSVATNPVNYL	not soluble
MIITIPIKNQKDIGTPSDSVVVLGYFDGIHKGHQELFRVANKAARKDLLPIVVMTFNESPKIALEPYHPDLFLHILNPAERERKLKREGVEELYLLDFSSQFASLTAQEFFATYIKAMNAKIIVAGFDYTFGSDKKTAEDLKNYFDGEVIIVPPVEDEKGKISSTRIRQAILDGNVKEAGKLLGAP	not soluble
MIKLIATIIVSTLILGSCSTMKDEIEKVPASQYKGQDFQPLAEKSAIAHAKKYREEYEKLGEQFFKDNFSLNVKATNVVGSGDGAEVYVHCDDHDIVFNASIPFDMESIHEEGSMRSNDNGDTMSMMVGTVLSGFEYRANKEKMDNLEKYLKDKEDKYHYTGFTDEAITKTQNIGYQNNYFYITTSSTKLRDYRKHFEPLIKESDDDFKKHMKQLKSKKDTYINTEITTTLFSTLDEYDEKIIRKNTLSMAKEMRKEPSIPHNFTFHLLFSNNKLKINDPNISNNQINEYRVFDHDGFKNLEHHHHHH	not soluble
MIKLSNITKVFQQGTRTIQALNNVSLHVPAGQIYGVIGASGAGKSTLIRCVNLLERPTEGSVQVGGQELTTLSESELTKARRQIGMIFQHFNLLSSRTVFGNVALPLELDNTPKEEIKRRVTELLDLVGLGDKHDSYPANLSGGQKQRVAIARALASNPKVLLCDEATSALDPATTRSILELLKDINRRLGLTILLITHEMDVVKRICDCVAVISNGELIEQDTVSEVFSHPKTPLAQKFIQSTLHLDIPEDYQARLKASPETDSVPMLRMEFTGQSVDAPLLSETARRFNVNNNIISAQMDYAGGVKFGIMLTEMHGTQEETQAAIAWLQDHHVKVEVLGYV	not soluble
MIKPALLDKKIEKPHSWEDIPHGEWICELIQSRLDEWCPKLFGYHMLKIGGLSAELDSRFCNIKHQVNLDNKNSLRNITAELPQLPFLEKSIDACVLAHQLDYSSDPHQLLREIDRVLIGDGYVILTGFNPMSAIGLASLFPWRKNNLPWSGRMFTPHRIKDWLSVLNFEVVYSDCFALAPLTRYRTMWTWFEGLGGDAVKPISGIYFIVARKRTYPLRPIKSAWKKKPKLAPISVAQTRQGKMKSD	not soluble
MILDKKSYDLLSYLLKLETPETVMAISHALNQSRRKVYYQLDKINQALPKGVDQIISYPRLGILLTADQKAACRLLLEEVTDYNYVMKSDERRRLSSIYIAVSTERVTIDKLMQINDVSRNTILNDLTELREELEDKQYKIQLHATKARGYYFGCHPMALIQYLYKLLVDVYQGGNTSFIDIFNRKLSEIQGLSVYFSKDILTYFHEYLFLSQASLGKTINTQDSQFMLQILPFMLLSYRNMRLDSETKSALKQEFHLIWKRKEYHIAQDLARELYHNFKLHLDDIEVSMVAMLMLSFRKDQDHHVESQDYDDMRATISHFIDQLESRYQLHFTHKQDLLKRLTTHCKALVYRKAYGIFLVNPLTDHVKEKYEELFAMTQSCATILEQDWTISLTDDDIAYLTIHLGGELRHNNTEQEKTKLVIVSDDGIGIQKLLFKQCQRYLANGQIEAVFTTEQYQSVYDLLAVDMIVATTDTLKTKIPMLIVNPILSDDDIIKLIRFSKQGRLSEHSRFSTELTKAIEAVVKDESDRYALVSKIEKLIHRELL	not soluble

Reference: the DeepSol protein solubility set
